Experimental data reported in patent US20100233678.

Assays:
[1] = test system: IgG, polyclonal (Mus musculus); assay: FP; conditions: 10 nM DNA, 1 uM IgG, PBS pH 7.0, 45 min
[2] = test system: IgG, polyclonal (ChromPure) (Homo sapiens); assay: filter; conditions: ultrafiltration, 41 mM Na+, pH 6
[3] = test system: IgG4, monoclonal (Homo sapiens); assay: filter; conditions: 37.5 mM NaCl, 3.75 mM Na citrate, pH 6.0
[4] = test system: IgG Fc fragment (Homo sapiens); assay: filter; conditions: 37.5 mM NaCl, 3.75 mM sodium citrate, pH 6.0
[5] = test system: IgG, polyclonal (Mus musculus); assay: filter; conditions: 37.5 mM NaCl, 3.75 mM sodium citrate, pH 6.0
[6] = test system: IgM, monoclonal (Homo sapiens); assay: filter; conditions: 37.5 mM NaCl, 3.75 mM sodium citrate, pH 6.0
[7] = test system: IgG Fab2 fragment (Mus musculus); assay: filter; conditions: 37.5 mM NaCl, 3.75 mM sodium citrate, pH 6.0
[8] = test system: IgG Fab2 fragment (Homo sapiens); assay: filter; conditions: 37.5 mM NaCl, 3.75 mM sodium citrate, pH 6.0
[9] = test system: IgA, monoclonal (Homo sapiens); assay: filter; conditions: 37.5 mM NaCl, 3.75 mM sodium citrate, pH 6.0
[10] = test system: IgG3, monoclonal (Homo sapiens); assay: filter; conditions: 37.5 mM NaCl, 3.75 mM Na citrate, pH 6.0
[11] = test system: IgG1, monoclonal (Homo sapiens); assay: filter; conditions: 37.5 mM NaCl, 3.75 mM sodium citrate, pH 6.0
[12] = test system: IgG2, monoclonal (Homo sapiens); assay: filter; conditions: 37.5 mM NaCl, 3.75 mM sodium citrate, pH 6.0
[13] = hexaethylene glycol (iSp18) linkers as both loops

Sequence | Ka (log10 Ka (M-1)) [5] | Ka (log10 Ka (M-1)) [6] | Ka (log10 Ka (M-1)) [7] | Ka (log10 Ka (M-1)) [8] | Ka (log10 Ka (M-1)) [9] | Ka (log10 Ka (M-1)) [11] | Ka (log10 Ka (M-1)) [12] | Ka [3] | Ka [10] | further results
AGGCCGCGCCCCCCGCGCCCACCGCCCCGGTGCC [RAD29] | – | – | – | – | – | – | – | – | – | binding signal (% polarization change) [1]: 19
CCCTCCCTGGGCTTTTTTTGATTTTTCTTAA [RAD4] | 7.71 | 6.89 | 7.09 | 6.89 | 7.66 | 7.52 | 7.67 | – | – | Ka (log10 Ka (M-1)) ([2]; pH 5 8.48, pH 7 7.10, pH 8 7.02): 8.13; Ka ([3]; control oligo): 7.13 log10 M-1; Ka (log10 Ka (M-1)) [4]: 5.26; Ka ([10]; control oligo): 6.66 log10 M-1
CCTCTTCCTTCTCCGGAGAAG [RAD1] | – | – | – | – | – | – | – | – | – | Ka ([3]; two hexaethylene glycol (iSp18) linkers as loops [iSp18 (hexaethylene glycol) linkers left out between 7-8 and 14-15]): 6.37 log10 M-1; Ka ([10]; two hexaethylene glycol (iSp18) linkers as loops [iSp18 (hexaethylene glycol) linkers left out between 7-8 and 14-15], ultrafiltration, Picogreen): 6.17 log10 M-1
CCTCTTCHEGCTTCTCCHEGGGAGAAG [RAD1] | – | – | – | – | – | – | – | – | – | Ka (log10 Ka (M-1)) ([2]; hexaethylene glycol (iSp18) linkers as both loops, pH 5 7.45, pH 7 6.49, pH 8 6.30): 6.51; Ka (log10 Ka (M-1)) [4, 13]: 5.8; Ka (log10 Ka (M-1)) [5, 13]: 6.6; Ka (log10 Ka (M-1)) [6, 13]: 6.32; Ka (log10 Ka (M-1)) [7, 13]: 6.38; Ka (log10 Ka (M-1)) [8, 13]: 5.82; Ka (log10 Ka (M-1)) [9, 13]: 6.37; Ka (log10 Ka (M-1)) [11, 13]: 6.38; Ka (log10 Ka (M-1)) [12, 13]: 6.51
CCTCTTCTTTTTCTTCTC [RAD20] | 8.3 | 7.02 | 7.41 | 6.9 | 7.53 | 7.34 | 7.85 | 7.67 log10 M-1 | 6.84 log10 M-1 | Ka (log10 Ka (M-1)) ([2]; pH 5 8.11, pH 7 7.40, pH 8 6.64): 7.98; Ka (log10 Ka (M-1)) [4]: 5.96
CCTCTTCTTTTTCTTCTCCTTTTTGGAGAAG [RAD2] | 7.49 | 6.73 | 6.71 | 6.45 | 6.9 | 7.04 | 7.06 | 7.08 log10 M-1 | 6.64 log10 M-1 | Ka (log10 Ka (M-1)) ([2]; pH 5 8.74, pH 7 6.96, pH 8 6.57): 7.61; Ka (log10 Ka (M-1)) [4]: 5.86
CCTTCCTTTGGAAGGTTG [RAD23] | 6.77 | 6.08 | 6.33 | 5.64 | 6.38 | 6.14 | 6.86 | 5.97 log10 M-1 | 5.62 log10 M-1 | Ka (log10 Ka (M-1)) ([2]; pH 5 7.37, pH 7 6.31, pH 8 6.21): 6.88
CGCGAAAACGCG [RAD22] | – | – | – | – | – | – | – | – | – | Ka (log10 Ka (M-1)) ([2]; pH 5 5.95, pH 7 6.04, pH 8 5.97): 6.25
CTCTCTCTTTTTCTCTCTCTTTTTGAGAGAG [RAD9] | 7.46 | 6.79 | 6.75 | 6.44 | 6.95 | 7.05 | 7.05 | 7.06 log10 M-1 | 6.62 log10 M-1 | Ka (log10 Ka (M-1)) ([2]; pH 5 8.67, pH 7 7.04, pH 8 6.94): 7.74; Ka (log10 Ka (M-1)) [4]: 5.87
GAGAGAGTTTTTGAGAGAGTTTTTCTCTCTC [RAD7] | 7.69 | 6.89 | 6.97 | 6.68 | 7.33 | 7.3 | 7.25 | 7.16 log10 M-1 | 6.74 log10 M-1 | Ka (log10 Ka (M-1)) ([2]; pH 5 8.51, pH 7 6.97, pH 8 6.79): 8.04; Ka (log10 Ka (M-1)) [4]: 5.99
GAGTGAGTCTCAGTTAGTTTCGATTGATTCT [RAD5] | – | – | – | – | – | – | – | – | – | Ka (log10 Ka (M-1)) ([2]; pH 5 8.75, pH 7 7.11, pH 8 6.81): 8.03
GGAAAGGTTTTTGGAAAGGTTTTTCCTTTCC [RAD6] | – | – | – | – | – | – | – | – | – | Ka (log10 Ka (M-1)) ([2]; pH 5 8.50, pH 7 6.86, pH 8 6.74): 7.96
GGAGGTGCTCCGAAAGGAACTCC [RAD30] | – | – | – | – | – | – | – | – | – | binding signal (% polarization change) [1]: 15
GGTTGGTTTGGTTGG [RAD13 (TTT-aptamer)] | – | – | – | – | – | – | – | – | – | Ka (log10 Ka (M-1)) ([2]; pH 5 7.55, pH 7 6.46, pH 8 6.53): 6.96
TCCCTTTCCCTTTCCCTTTCCC [RAD28] | – | – | – | – | – | – | – | – | – | binding signal (% polarization change) [1]: 22
TCCTCTTCTTTTTCTTCTC [RAD24] | – | – | – | – | – | – | – | – | – | binding signal (% polarization change) [1]: 21
TCCTTTCCTTTCCTTTCCT [RAD27] | – | – | – | – | – | – | – | – | – | binding signal (% polarization change) [1]: 22
TCTCTCTCTCTCTCTCTCT [RAD26] | – | – | – | – | – | – | – | – | – | binding signal (% polarization change) [1]: 38
TGGAGTCTGCGCGAGTCAGCGCTCAAGATC [RAD8] | – | – | – | – | – | – | – | – | – | Ka (log10 Ka (M-1)) ([2]; pH 5 8.41, pH 7 6.86, pH 8 6.84): 7.85
TGGGCCGGTAACGGATTACCGTAAGGTCCC [RAD11] | – | – | – | – | – | – | – | – | – | Ka (log10 Ka (M-1)) ([2]; pH 5 8.31, pH 7 6.85, pH 8 6.85): 7.64
TGGGCCGGTAACGGGTTACCGTAAGGTCCC [RAD10] | 7.53 | 6.7 | 6.76 | 6.43 | 6.92 | 7.04 | 7.01 | 7 log10 M-1 | 6.62 log10 M-1 | Ka (log10 Ka (M-1)) ([2]; pH 5 8.41, pH 7 6.81, pH 8 6.72): 7.65; Ka (log10 Ka (M-1)) [4]: 5.92
TGGTTGGTTTTTGGAAGGATTTTTTCCTTCC [RAD3] | 7.69 | 6.71 | 7.09 | 6.97 | 7.38 | 7.45 | 7.36 | 7.2 log10 M-1 | 6.69 log10 M-1 | Ka (log10 Ka (M-1)) ([2]; pH 5 8.60, pH 7 6.86, pH 8 6.76): 7.79; Ka (log10 Ka (M-1)) [4]: 6.34
TTCCTTCCTTCCTTCCTTC [RAD25] | – | – | – | – | – | – | – | – | – | binding signal (% polarization change) [1]: 22
TTTGGTTGGTTTGGTTGG [RAD19] | – | – | – | – | – | – | – | – | – | Ka (log10 Ka (M-1)) ([2]; inosine at I positions [inosine at 4,14], pH 5 7.82, pH 7 6.50, pH 8 6.04): 7.14
TTTTCGCGCGTACGCGCGCGAA [RAD15] | 6.35 | 6.19 | 6.21 | 5.33 | 6.23 | 6.39 | 6.18 | 6.13 log10 M-1 | 6.22 log10 M-1 | Ka (log10 Ka (M-1)) ([2]; pH 5 7.65, pH 7 6.33, pH 8 6.19): 7
TTTTCGCGCGTTAACGCGCGAA [RAD16] | 7.07 | 6.26 | 6.11 | 6.23 | 6.46 | 6.87 | 6.11 | 6.54 log10 M-1 | 6.31 log10 M-1 | Ka (log10 Ka (M-1)) ([2]; pH 5 8.22, pH 7 7.25, pH 8 6.79): 7.8
TTTTCGCGTGTGTGCGCGAA [RAD12] | – | – | – | – | – | – | – | – | – | Ka (log10 Ka (M-1)) ([2]; pH 5 7.61, pH 7 6.37, pH 8 5.74): 6.98
